In patent US20210024630A1 (SYSTIMMUNE, published 2021):

Experiments:
[1] = target: T1, human 4-1BB (human, UniProt Q07011 24-255); experiment: flow cytometry (FACS) on human 41BB transfected CHO cells
T1 construct: whole, on cells; also called human 41BB transfected CHO cells
Procedure: (§1) The tetra-specific GNC antibodies listed in TABLEs 3 and 4 were tested for binding to Chinese hamster ovary cells (CHO) cells stably expressing a full-length human ROR1. Antibodies were prepared at 2× final concentration and titrated 1:5 across 3 wells of a 96 well plate in 50 ul of PBS/2% FBS and then 5,000 ROR1-CHO cells in 50 ul PBS/2% FBS were added. This mixture was incubated for 30 minutes on ice, washed once with 200 ul PBS/2% FBS, and then the secondary antibody PE Goat anti-Human IgG Fc at 1:1000 dilution of stock was added, and this mixture was incubated for 30 minutes on ice. Cells were washed 2×200 ul PBS/2% FBS, resuspended in 50 ul PBS/2% FBS and analyzed on a BD LSRFORTESSA and the binding profile is shown in FIG. 5. All of the tetra-specific GNC antibodies except for the control SI-27E12 contain a 41BB binding domain, 460C3, 420H5, or 466F6 and bound to 41BB expressing CHO cells with varying intensity.

[2] = target: T2, human PD-L1 (human, UniProt Q9NZQ7 19-290); experiment: flow cytometry (FACS) on human PDL1 transfected CHO cells
T2 construct: whole, on cells; also called human PDL1 transfected CHO cells

[3] = target: T3, human ROR1 (human, UniProt Q01973 30-937); experiment: flow cytometry (FACS) on CHO cells stably expressing full-length human ROR1
T3 construct: whole, on cells; also called full-length human ROR1 on CHO cells; ROR1-CHO
Procedure: as §1, with “4.” for “5. All of the tetra-specific GNC antibodies except for the control SI-27E12 contain a 41BB binding domain, 460C3, 420H5, or 466F6 and bound to 41BB expressing CHO cells with varying intensity.”

Measured: binding result

T1 sequence (Q07011 24-255): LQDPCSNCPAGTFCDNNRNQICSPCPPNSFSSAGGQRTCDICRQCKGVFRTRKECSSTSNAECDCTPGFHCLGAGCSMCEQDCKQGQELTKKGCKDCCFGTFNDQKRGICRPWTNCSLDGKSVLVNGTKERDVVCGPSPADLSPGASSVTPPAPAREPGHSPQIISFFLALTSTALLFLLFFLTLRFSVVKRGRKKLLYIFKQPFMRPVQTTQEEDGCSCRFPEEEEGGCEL
T2 sequence (Q9NZQ7 19-290): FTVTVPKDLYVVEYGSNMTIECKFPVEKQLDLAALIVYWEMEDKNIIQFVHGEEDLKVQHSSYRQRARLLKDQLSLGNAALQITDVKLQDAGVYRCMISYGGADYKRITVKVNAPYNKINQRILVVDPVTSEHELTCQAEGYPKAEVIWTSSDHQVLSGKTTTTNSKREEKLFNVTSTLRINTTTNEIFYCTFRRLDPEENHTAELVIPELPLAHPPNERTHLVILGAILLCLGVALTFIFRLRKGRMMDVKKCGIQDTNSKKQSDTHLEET
T3 sequence (Q01973 30-937): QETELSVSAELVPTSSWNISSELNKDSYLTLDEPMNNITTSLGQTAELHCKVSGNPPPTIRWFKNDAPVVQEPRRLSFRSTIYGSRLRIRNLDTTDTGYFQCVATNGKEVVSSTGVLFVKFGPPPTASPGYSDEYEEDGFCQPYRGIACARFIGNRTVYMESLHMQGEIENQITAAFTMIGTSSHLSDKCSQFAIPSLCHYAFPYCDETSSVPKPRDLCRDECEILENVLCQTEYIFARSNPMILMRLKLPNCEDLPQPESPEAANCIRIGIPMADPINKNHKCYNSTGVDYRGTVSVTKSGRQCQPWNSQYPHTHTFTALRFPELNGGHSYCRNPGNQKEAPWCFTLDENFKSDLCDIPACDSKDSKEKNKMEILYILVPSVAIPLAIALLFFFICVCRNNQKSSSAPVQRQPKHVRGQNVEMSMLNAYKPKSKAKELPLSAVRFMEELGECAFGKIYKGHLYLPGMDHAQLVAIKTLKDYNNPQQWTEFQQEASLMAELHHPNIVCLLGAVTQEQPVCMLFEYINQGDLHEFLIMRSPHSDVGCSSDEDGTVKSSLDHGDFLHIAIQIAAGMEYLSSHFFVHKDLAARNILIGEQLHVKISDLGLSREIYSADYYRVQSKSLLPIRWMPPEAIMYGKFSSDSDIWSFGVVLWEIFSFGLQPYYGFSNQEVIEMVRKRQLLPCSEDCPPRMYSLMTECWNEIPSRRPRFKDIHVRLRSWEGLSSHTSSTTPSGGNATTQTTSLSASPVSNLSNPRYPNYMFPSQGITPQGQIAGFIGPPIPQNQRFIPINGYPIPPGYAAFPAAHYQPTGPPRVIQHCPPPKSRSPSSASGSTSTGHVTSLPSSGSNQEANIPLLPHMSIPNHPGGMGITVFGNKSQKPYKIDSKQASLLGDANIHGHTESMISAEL

B1: SI-35E18 (460C3-L1H1-scFv x PL230C6-Fab x 323H7-H4L1-scFv x 284A10-H1L1-scFv) (antibody)
heavy: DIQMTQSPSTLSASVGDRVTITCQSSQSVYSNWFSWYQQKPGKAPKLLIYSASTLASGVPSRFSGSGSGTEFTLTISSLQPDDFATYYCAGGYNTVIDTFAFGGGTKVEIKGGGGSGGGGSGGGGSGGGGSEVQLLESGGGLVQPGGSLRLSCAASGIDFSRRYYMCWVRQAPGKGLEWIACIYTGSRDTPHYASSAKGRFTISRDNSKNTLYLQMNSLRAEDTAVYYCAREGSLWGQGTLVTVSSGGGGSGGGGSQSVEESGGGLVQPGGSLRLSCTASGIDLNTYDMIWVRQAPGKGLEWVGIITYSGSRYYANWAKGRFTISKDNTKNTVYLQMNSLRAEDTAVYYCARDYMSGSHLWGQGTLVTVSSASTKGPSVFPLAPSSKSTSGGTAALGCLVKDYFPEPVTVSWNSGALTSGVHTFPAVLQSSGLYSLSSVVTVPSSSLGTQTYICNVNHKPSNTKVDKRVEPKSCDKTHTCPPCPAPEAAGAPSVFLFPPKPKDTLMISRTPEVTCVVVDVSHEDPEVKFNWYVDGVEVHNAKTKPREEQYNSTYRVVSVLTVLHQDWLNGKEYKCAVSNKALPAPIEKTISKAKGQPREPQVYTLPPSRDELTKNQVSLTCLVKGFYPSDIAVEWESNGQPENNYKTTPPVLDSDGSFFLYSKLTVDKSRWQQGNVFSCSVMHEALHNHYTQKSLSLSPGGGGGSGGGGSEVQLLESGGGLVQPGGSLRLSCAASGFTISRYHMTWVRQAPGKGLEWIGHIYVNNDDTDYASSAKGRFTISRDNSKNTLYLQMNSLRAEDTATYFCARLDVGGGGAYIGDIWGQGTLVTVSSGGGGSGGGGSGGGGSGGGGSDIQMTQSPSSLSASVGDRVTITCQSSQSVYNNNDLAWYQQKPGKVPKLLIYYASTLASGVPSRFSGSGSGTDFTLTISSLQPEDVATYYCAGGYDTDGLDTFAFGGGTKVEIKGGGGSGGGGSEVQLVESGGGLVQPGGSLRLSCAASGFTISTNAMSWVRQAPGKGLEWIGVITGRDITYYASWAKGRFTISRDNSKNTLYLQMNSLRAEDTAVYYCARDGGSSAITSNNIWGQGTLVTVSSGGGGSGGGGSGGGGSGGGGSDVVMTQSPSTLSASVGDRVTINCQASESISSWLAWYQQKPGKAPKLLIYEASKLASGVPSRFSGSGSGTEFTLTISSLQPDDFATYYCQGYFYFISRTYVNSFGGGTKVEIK
light: AYDMTQSPSSVSASVGDRVTIKCQASEDIYSFLAWYQQKPGKAPKLLIHSASSLASGVPSRFSGSGSGTDFTLTISSLQPEDFATYYCQQGYGKNNVDNAFGGGTKVEIKRTVAAPSVFIFPPSDEQLKSGTASVVCLLNNFYPREAKVQWKVDNALQSGNSQESVTEQDSKDSTYSLSSTLTLSKADYEKHKVYACEVTHQGLSSPVTKSFNRGEC
notes: Tetra-specific (4-1BB x PD-L1 x ROR1 x CD3) antibody with human IgG1 null2 Fc; also called tetra-specific GNC antibody
binds: [1] | [2] | [3]

B2: SI-35E20 (466F6-L5H2-scFv x PL230C6-Fab x 323H7-H4L1-scFv x 284A10-H1L1-scFv) (antibody)
heavy: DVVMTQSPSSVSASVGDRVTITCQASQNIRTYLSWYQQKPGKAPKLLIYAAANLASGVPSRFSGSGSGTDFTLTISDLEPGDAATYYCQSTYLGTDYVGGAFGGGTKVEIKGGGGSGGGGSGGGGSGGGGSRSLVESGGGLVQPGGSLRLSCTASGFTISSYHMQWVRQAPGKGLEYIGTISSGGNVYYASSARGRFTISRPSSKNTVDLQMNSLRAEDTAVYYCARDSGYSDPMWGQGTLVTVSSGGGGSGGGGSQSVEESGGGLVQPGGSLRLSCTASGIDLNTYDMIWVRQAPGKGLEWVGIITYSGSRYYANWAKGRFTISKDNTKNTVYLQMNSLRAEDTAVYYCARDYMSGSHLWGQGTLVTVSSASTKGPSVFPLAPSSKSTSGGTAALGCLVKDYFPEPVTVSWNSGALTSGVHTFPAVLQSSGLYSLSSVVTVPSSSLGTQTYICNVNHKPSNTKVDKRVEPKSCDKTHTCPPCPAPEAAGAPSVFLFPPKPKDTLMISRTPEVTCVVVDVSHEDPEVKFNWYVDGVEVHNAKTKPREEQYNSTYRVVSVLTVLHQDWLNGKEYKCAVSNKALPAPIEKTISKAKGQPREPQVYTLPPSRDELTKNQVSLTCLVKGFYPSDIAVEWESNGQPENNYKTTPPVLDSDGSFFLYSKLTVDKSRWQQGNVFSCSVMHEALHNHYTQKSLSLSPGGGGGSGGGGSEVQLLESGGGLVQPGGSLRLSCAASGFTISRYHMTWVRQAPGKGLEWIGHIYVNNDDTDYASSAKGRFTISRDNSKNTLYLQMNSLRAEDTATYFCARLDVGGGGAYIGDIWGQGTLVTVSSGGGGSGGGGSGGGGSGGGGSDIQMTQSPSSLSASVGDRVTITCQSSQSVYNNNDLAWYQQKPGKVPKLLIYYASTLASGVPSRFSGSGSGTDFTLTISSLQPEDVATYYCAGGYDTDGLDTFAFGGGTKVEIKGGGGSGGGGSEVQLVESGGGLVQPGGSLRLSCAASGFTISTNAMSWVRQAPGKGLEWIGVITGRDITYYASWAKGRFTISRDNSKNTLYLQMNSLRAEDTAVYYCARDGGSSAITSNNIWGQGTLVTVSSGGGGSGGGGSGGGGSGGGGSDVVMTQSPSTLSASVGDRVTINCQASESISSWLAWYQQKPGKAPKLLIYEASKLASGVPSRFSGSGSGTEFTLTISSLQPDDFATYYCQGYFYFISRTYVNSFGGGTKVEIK
light: AYDMTQSPSSVSASVGDRVTIKCQASEDIYSFLAWYQQKPGKAPKLLIHSASSLASGVPSRFSGSGSGTDFTLTISSLQPEDFATYYCQQGYGKNNVDNAFGGGTKVEIKRTVAAPSVFIFPPSDEQLKSGTASVVCLLNNFYPREAKVQWKVDNALQSGNSQESVTEQDSKDSTYSLSSTLTLSKADYEKHKVYACEVTHQGLSSPVTKSFNRGEC
notes: as for B1
binds: [1] | [2] | [3]
